Results from patent publication US20250057128A1, “HUMANIZED MOUSE MODELS” (The Jackson Laboratory, priority 2021, published 2025).

Test system: NSG-SGM3×IL15 mice humanized with human PBMCs
Assay: Cytokine release syndrome (CRS) induction in PBMC-humanized mice, serum cytokine levels
Type: in vivo, mouse
Excerpt: FIGS. 9A-9C show comparisons of TNF (FIG. 9A), IL-6 (FIG. 9B), and IL-2 (FIG. 9C) levels in NSG-SGM3 mice and NSG-SGM3×IL15 mice engrafted with 5×10^6 human PBMCs per mouse.
FIGS. 10A-10C show comparisons of IFN-γ (FIG. 10A), TNF (FIG. 10B), and IL-6 (FIG. 10C) levels in NSG-SGM3 mice and NSG-SGM3×IL15 mice engrafted with 1×10^6 or 2×10^6 human PBMCs per mouse, with two different doses of irradiation (150 and 175 cGy).
NSG-SGM3×IL15 and NSG-SGM3 mice humanized with human PBMCs and then dosed with various drugs to induce cytokine release syndrome (CRS). Briefly, the mice were irradiated (100 cGy) and administered PBS, OKT3, Anti-CD28, or a CD19×CD3 BiTE.
The use of lower levels of PBMCs for humanization was also tested. Briefly, NSG-SGM3×IL15 and NSG-SGM3 mice were irradiated (150 cGy or 175 cGy) and administered human PBMCs intravenously (1×10^6/mouse or 2×10^6/mouse) on day 0. On day 12, mice were dosed with PBS or OKT3 and serum cytokine levels were analyzed.

OKT3: drug dosed to induce cytokine release syndrome; known to induce cytokine release
serum cytokine levels (TNF, IL-6, IL-2) (NSG-SGM3×IL15 mice as compared to NSG-SGM3 mice, irradiated 100 cGy, 5×10^6 human PBMCs per mouse, FIGS. 9A-9C): higher cytokine levels
serum cytokine levels (IFN-γ, TNF, IL-6) (irradiated 150 cGy or 175 cGy, 1×10^6 or 2×10^6 human PBMCs per mouse, dosed on day 12, drug vs PBS control, FIGS. 10A-10C): greater difference between the drug (OKT3) and control (PBS)
